B1: LINE1-full (parent)
chain: UACGUAGGUGGUUUUCCCCUGAUAGUGCUAAGGGGGCCUGGAAGUUUGGACUGGGCAGAGCUCAACACAGCGUGGCAAAGUGGCUGUGGCUAGACUGCCUCUCUGGAUUCCUCGUCACUCAGCAGGGCAUCUCUGAGAGAAAUGCC

Variants of: B1
Assay: self-cleavage, relative activity (ratio to wild type); higher = more cleavage; in vitro, sequencing; the parent is a self-cleaving ribozyme

**Q.** For UACGUAGGUGGUUUUCCCCUGAUAGUGCUAAGGGGGCCUGGAAGUUUGGACUGGGCAGAGCUCAACACAGCGUGGCAAAGUGUCUGUGGCUAGACUGCCUCUCUGGAUUCCUCGUCACUCAGCGGGGCAUCUCUGAGAGAAAUGCC [G83U A124G], which self-cleavage is on record?
**A.** 0.36

**Q.** With UACGUAGGUGGUUUUCCCCUGAUAGUGCUAAGGGGGCCUGGAAGUUUGGACUGGGCAGAGCUCAACACAGCGUGGCAAAGUGACUGUGGCUAGACUGCCUCUCUGGACUCCUCGUCACUCAGCAGGGCAUCUCUGAGAGAAAUGCC [G83A U108C] as the variant, how does the self-cleavage read?
**A.** 0.56

**Q.** For UACGUAGGUGGUUUUCCCCUGAUAGUGCUAAGGGGGCCUGGAAGUUUGGACUGGGCAGAGCUCAACACAGCGUGGCAAAGUGACUGUGGCUAGACUGCCUCUCUGGAUUCCUCGUCACACAGCAGGGCAUCUCUGAGAGAAAUGCC [G83A U119A], which self-cleavage is on record?
**A.** 0.85

**Q.** Which self-cleavage does the source give for UACGUAGGUGGUUUUCCCCUGAUAGUGCUAAGGGGGCCUGGAAGUUUGGACUGGGCAGAGCUCAACACAGCGUGGCAAAGUGACUGUGGCUAGACUGCCUCUCUGGAUUCCUCGUCACCCAGCAGGGCAUCUCUGAGAGAAAUGCC [G83A U119C] here?
**A.** 1.51

**Q.** For UACGUAGGUGGUUUUCCCCUGAUAGUGCUAAGGGGGCCUGGAAGUUUGGACUGGGCAGAGCUCAACACAGCGUGGCAAAGUGACUGUGGCUAGACUGCCUCUCUGGAUUCCUCGUCACUCAGCAGGGCAACUCUGAGAGAAAUGCC [G83A U130A], which self-cleavage is on record?
**A.** 0.99

**Q.** With UACGUAGGUGGUUUUCCCCUGAUAGUGCUAAGGGGGCCUGGAAGUUUGGACUGGGCAGAGCUCAACACAGCGUGGCAAAGUGACUGUGGCUAGACUGCCUCUCUGGAUUCCUCGCCACUCAGCAGGGCAUCUCUGAGAGAAAUGCC [G83A U115C] as the variant, how does the self-cleavage read?
**A.** 1.47

**Q.** With UACGUAGGUGGUUUUCCCCUGAUAGUGCUAAGGGGGCCUGGAAGUUUGGACUGGGCAGAGCUCAACACAGCGUGGCAAAGUGGAUGUGGCUAGACUGCCUCUCUGGAUUCCUCGUCACUCAGCAGGGCAUCUCUGAGAGAAAUGCC [C84A] as the variant, how does the self-cleavage read?
**A.** 0.1

**Q.** For UACGUAGGUGGUUUUCCCCUGAUAGUGCUAAGGGGGCCUGGAAGUUUGGACUGGGCAGAGCUCAACACAGCGUGGCAAAGUGACGGUGGCUAGACUGCCUCUCUGGAUUCCUCGUCACUCAGCAGGGCAUCUCUGAGAGAAAUGCC [G83A U85G], which self-cleavage is on record?
**A.** 0.1

**Q.** Which self-cleavage does the source give for UACGUAGGUGGUUUUCCCCUGAUAGUGCUAAGGGGGCCUGGAAGUUUGGACUGGGCAGAGCUCAACACAGCGUGGCAAAGUGACUGUGGCUAGACUGCCUCUCUGGAUUCCCCGUCACUCAGCAGGGCAUCUCUGAGAGAAAUGCC [G83A U112C] here?
**A.** 0.54

**Q.** Which self-cleavage does the source give for UACGUAGGUGGUUUUCCCCUGAUAGUGCUAAGGGGGCCUGGAAGUUUGGACUGGGCAGAGCUCAACACAGCGUGGCAAAGUGUCUGUGGCUAGACUGCCUCUCUGGAUUCCUCGUCACUCAGCAGGGCAUCUCUGAGAGAAGUGCC [G83U A142G] here?
**A.** 0.44

**Q.** Which self-cleavage does the source give for UACGUAGGUGGUUUUCCCCUGAUAGUGCUAAGGGGGCCUGGAAGUUUGGACUGGGCAGAGCUCAACACAGCGUGGCAAAGUGUCUGUGGCUAGACUGCCUCUCUGGAUUCCCCGUCACUCAGCAGGGCAUCUCUGAGAGAAAUGCC [G83U U112C] here?
**A.** 0.85

**Q.** With UACGUAGGUGGUUUUCCCCUGAUAGUGCUAAGGGGGCCUGGAAGUUUGGACUGGGCAGAGCUCAACACAGCGUGGCAAAGUGACUGUGGCUAGACUGCCUCUCCGGAUUCCUCGUCACUCAGCAGGGCAUCUCUGAGAGAAAUGCC [G83A U104C] as the variant, how does the self-cleavage read?
**A.** 0.95

**Q.** For UACGUAGGUGGUUUUCCCCUGAUAGUGCUAAGGGGGCCUGGAAGUUUGGACUGGGCAGAGCUCAACACAGCGUGGCAAAGUGACUGUGGCCAGACUGCCUCUCUGGAUUCCUCGUCACUCAGCAGGGCAUCUCUGAGAGAAAUGCC [G83A U91C], which self-cleavage is on record?
**A.** 0.24

**Q.** With UACGUAGGUGGUUUUCCCCUGAUAGUGCUAAGGGGGCCUGGAAGUUUGGACUGGGCAGAGCUCAACACAGCGUGGCAAAGUGACUGUGGCUAGACUGCCUCUCUGGAUUCCUCGUCACUCAGCAGGGCAUCUCUGAGAGAAACGCC [G83A U143C] as the variant, how does the self-cleavage read?
**A.** 0.71

**Q.** Which self-cleavage does the source give for UACGUAGGUGGUUUUCCCCUGAUAGUGCUAAGGGGGCCUGGAAGUUUGGACUGGGCAGAGCUCAACACAGCGUGGCAAAGUGUCUGUGGCUAGACUGCCUCUCUGGAUUCCUCGUCUCUCAGCAGGGCAUCUCUGAGAGAAAUGCC [G83U A117U] here?
**A.** 1.21

**Q.** Which self-cleavage does the source give for UACGUAGGUGGUUUUCCCCUGAUAGUGCUAAGGGGGCCUGGAAGUUUGGACUGGGCAGAGCUCAACACAGCGUGGCAAAGUGCCUGUGGCUAGACUGCCUCUCUGGAUUCCUCGUCACUCAGCAGGGCAUCUCUGAGAGAAAUGCC [G83C] here?
**A.** 0.87

**Q.** With UACGUAGGUGGUUUUCCCCUGAUAGUGCUAAGGGGGCCUGGAAGUUUGGACUGGGCAGAGCUCAACACAGCGUGGCAAAGUGUCUGUGGCUAGACUGCCUCUCUGGAUUCCUCGUCACUCAGCAGGGCAUCUCUGAGAGAAAUGCC [G83U] as the variant, how does the self-cleavage read?
**A.** 0.86

**Q.** With UACGUAGGUGGUUUUCCCCUGAUAGUGCUAAGGGGGCCUGGAAGUUUGGACUGGGCAGAGCUCAACACAGCGUGGCAAAGUGUCAGUGGCUAGACUGCCUCUCUGGAUUCCUCGUCACUCAGCAGGGCAUCUCUGAGAGAAAUGCC [G83U U85A] as the variant, how does the self-cleavage read?
**A.** 0.07

**Q.** With UACGUAGGUGGUUUUCCCCUGAUAGUGCUAAGGGGGCCUGGAAGUUUGGACUGGGCAGAGCUCAACACAGCGUGGCAAAGUGCCUGUGGCUAGACUGCCUCUCUGGAUUCCUCGUCGCUCAGCAGGGCAUCUCUGAGAGAAAUGCC [G83C A117G] as the variant, how does the self-cleavage read?
**A.** 0.76

**Q.** With UACGUAGGUGGUUUUCCCCUGAUAGUGCUAAGGGGGCCUGGAAGUUUGGACUGGGCAGAGCUCAACACAGCGUGGCAAAGUGCCUGUGGCUAGGCUGCCUCUCUGGAUUCCUCGUCACUCAGCAGGGCAUCUCUGAGAGAAAUGCC [G83C A94G] as the variant, how does the self-cleavage read?
**A.** 0.17
